Source: the DeepSol protein solubility set

Assay: soluble on expression in E. coli; label from the status in PepcDB or PDB records

Soluble on expression in E. coli, not soluble:
GNDIDYSVGGSVSDAVSEVTEYANAKKNDPYGSWYTGRKVGEIWGYRAEGLIQTQEEADAYNAEYDLSYISGKLWEPGDVKYIDLDGNKVIDRGDNRLVDGDMGDQTIIGNTTPRYQYTFNGYISWKGLSLSVMFQGVGKRDWVAGGAYFWGFGPYAQVTVFKEHMDYWRPDNPGAYYPKPYINSAGGVAPYQDKNIQRTDLYLQNAAYCRLKNLTLSYDLPNAWVHKAGLQKVQVFFSGENLLTFTKLKGMFDPEAIFSSNSYTSEGGKNYPMNRVLSLGFIVNL
GNIAKPIRILGNGMDRVANGELETRISQQVDDRDDELSHLAIQFDKMVEKLEKLVAKERHLLHHVSHEMRSPLARMQAIVGLIQAQPQKQEQYLKRLEGELTRMDTLAGELLTLSRLETSNMALEKESLKLLPFLGNLVEDNQSIAQKNGQTVTLSADGKIPENTTILANESYLY
GPEQAMYSFMTYYIAMKTIDAVIQGLDETKAVIIVSEQYDEISDAILHRLGRGTTKLKGKGGYTDEEKDVIYAVVTRLEVTKLKSIVFEVDQNAFITIMNTHETRGGKFKNAIH
GPGSAPSKDGHVFEMSRPEQAAYGLAMSLVRWHAFNRFCANCGTATDPTRDVGFSRFCPKCRKQHFPQLVPAVLVAVLDGKGNVILSQRRKESKVLTLLSGFVLHGESAEETVRREVEEESGARVSKVRYIGSQPWPYPYLMMMCYYAVADASPSLVVDASELERVMWVSKQDVRRALEGQHSDMELRGPGTTPYAMLKPWVDGKVDDRGRITKPQSQL
GPGSMAHCCFLIYPLAKVADESFLQLLFDDSVKRSAFLGYPPRRFAIVELEESQNEAVLRAIGARDDDGRVEAREDNADTPFVDLFTRTGAKKGTDRNEPIGLRMGCIPHLSQVRFRRTYLRVIVSPVTIDELFGCVQKDSNHVKKEKRSLKRSRHTDEDAGPWVPRWPVANGDPTLAGRVEVVSMTGASRAGLSGDPEDERYREPYAECSGGPVCNMSPPKTFLSDDSAGDAAGRRALDVSVQNLIRELGFDK
GPGSMEAVGTADRPSLEFCPQAQNSPQTRPLLCVRRPPETVRRRHDRNPPRDSTQTADAVPWDSSSSPPHASCTAGGYKTSRGARQMALPFLFPPPGVGQRSFVADRVHRRQHCGLAQPLPQPWLRAASRSILLGDASSALPPLDPPAARPSVCRQRLALHGSGG
GPGSMERLLPSMQQRFAELAHTGVGESSLTVEALFQRYQRVLKVGEGTFGEVFVLYDTVAHTYITMKRMHTLLSLRRRSLGIHRCTFREVELLAALQHPNIVQVLDYHILSDGSLVMLMPVIAHDLTSLLRRWPSTPQSSDHGTASTAASTRPRMPLHVVKCIFRQIIAGVAYLHKHKVVHRDLKPSNVMVDHTGVVKLIDFGWSRFCAAAGAMTGPPCVTAFRPPEVLMGAHNHYTFSLDIWCCGCILFEMLTGGTPFAKSRNEAECLANIVDWLGSPPSSSEVYYRRAARCPFPLAPGRPDTFAQRCSNYGIKSAEAMFLRRMLCLEPGERATAEALLRDPWFTTAPTMCVPRAVPLPAHNMFRLVEVKRKELEH
GPGSMERNPAHPLDATAKLPVRQKEVTFDSLCVNADDRFVEGLSGKSEERRGFRPNTKLYAANAARTRGRTGGASDLGFTESLPTLNEVIGEEKISHLGRLRARPPRAAEGSTDVIPVARVKAKSSLTRPVHATPTSIPSTRSLWVEGSSVLNQDVGHASAALTHLSDCVAQERRLKVEWEAARLAKIRALRAVVKVFMQSFIDRGSFARSTSVGGKVMSDTLAVARCSVITNTLVGTVQNFMRAFRSRRLCAARGPVSGLQLFPNIAGQESDRFTLSLYSSAPGGAESSVNESYVSPNHSVSDYLEEEEVSRIKQLYFDYFDCEAVSISSAVASGSDMSIFAYSAASSISRPSSPVSRGGDHSSFSHCASTTM

Soluble on expression in E. coli, soluble:
GMQKTAFIWDLDGTLLDSYEAILSGIEETFAQFSIPYDKEKVREFIFKYSVQDLLVRVAEDRNLDVEVLNQVRAQSLAEKNAQVVLMPGAREVLAWADESGIQQFIYTHKGNNAFTILKDLGVESYFTEILTSQSGFVRKPSPEAATYLLDKYQLNSDNTYYIGDRTLDVEFAQNSGIQSINFLESTYEGNHRIQALADISRIFETK
GMQTLNDIYLAYLDSLNHQAFDELGTFVDDNVEHNGRPFGLSGYRDMLVKDFADIPDLRFEAEILVSDATRLAARLFFDCTPKSIFMDLPVNGRRVQFCEHVFYDFEQAKIRRVWSVLDKVAIERQLG
GMQYATLELNNAFKVLFSLRQVQAAEMVIAPGDREGGPDNRHRGADQWLFVVDGAGEAIVDGHTQALQAGSLIAIERGQAHEIRNTGDTPLKTVNFYHPPAYDAQGEPLPAGEG
GMREDMKDNVVKDKSLEFAVRIVNLYKFLVNEQKEFVMSKQILRSGTSIGANIREAEQAQSRADFINKLNIALKEANETEYWLELLIRTEYITREQYESINNDSTEINKLLISIIKTTKNN
GMRNMQEKGVSEKEILEELKKYRSLDLKYEDGNIFGSMCSNVLPITRKIVDIFLETNLGDPGLFKGTKLLEEKAVALLGSLLNNKDAYGHIVSGGTEANLMALRCIKNIWREKRRKGLSKNEHPKIIVPITAHFSFEKGREMMDLEYIYAPIKEDYTIDEKFVKDAVEDYDVDGIIGIAGTTELGTIDNIEELSKIAKENNIYIHVDAAFGGLVIPFLDDKYKKKGVNYKFDFSLGVDSITIDPHKMGHCPIPSGGILFKDIGYKRYLDVDAPYLTETRQATILGTRVGFGGACTYAVLRYLGREGQRKIVNECMENTLYLYKKLKENNFKPVIEPILNIVAIEDEDYKEVCKKLRDRGIYVSVCNCVKALRIVVMPHIKREHIDNFIEILNSIKRD
GMSKPAITLWSDAHFFSPYVLSAWVALQEKGLSFHIKTIDLDSGEHLQPTWQGYGQTRRVPLLQIDDFELSESSAIAEYLEDRFAPPTWERIYPLDLENRARARQIQAWLRSDLMPIREERPTDVVFAGAKKAPLTAEGKASAEKLFAMAEHLLVLGQPNLFGEWCIADTDLALMINRLVLHGDEVPERLVDYATFQWQRASVQRFIALSAKQSG
GMTDTNLVEMRAIERMMFDYSYHLDMNHPEELAALFVEDCEVSYAPNFGATGRDAYKKTLEGIGTFFRGTSHHNSNICIDFVSETEANVRSVVLAIHRYTKERPDGILYGQYFDTVVKVDGQWKFKRRELRTTMTTDYHVRAANPIGRAE
GMTDWQQALDRHVGVGVRTTRDLIRLIQPEDWDKRPISGKRSVYEVAVHLAVLLEADLRIATGATADEMAQFYAVPVLPEQLVDRLDQSWQYYQDRLMADFSTETTYWGVTDSTTGWLLEAAVHLYHHRSQLLDYLNLLGYDIKLDLFE
GMTISRNYDQEIKDTAGHKYAYNFDFDVMHPFMVRAFTPFFRPGNLLELGSFKGDFTSRLQEHFNDITCVEASEEAISHAQGRLKDGITYIHSRFEDAQLPRRYDNIVLTHVLEHIDDPVALLKRINDDWLAEGGRLFLVCPNANAVSRQIAVKMGIISHNSAVTEAEFAHGHRCTYALDTLERDASRAGLQVTYRSGIFFKALANFQWDQILQTDILSKEYLDGCYQLGQQYPDLCASIFLLCEKGINQ
GMTLAALCQGVLERLDPRQPGRQLVALSGAPGSGKSTLSNPLAAALSAQGLPAEVVPMDGFHLDNRLLEPRGLLPRKGAPETFDFEGFQRLCHALKHQERVIYPLFDRARDIAIAGAAEVGPECRVAIIEGNYLLFDAPGWRDLTAIWDVSIRLEVPMADLEARLVQRWLDHGLNHDAAVARAQGNDLANARAIEAARLPADLTWPQA
GMWDETELGLYKVNEYVDARDTNMGAWFEAQVVRVTRKAPSRDEPCSSTSRPALEEDVIYHVKYDDYPENGVVQMNSRDVRARARTIIKWQDLEVGQVVMLNYNPDNPKERGFWYDAEISRKRETRTARELYANVVLGDDSLNDCRIIFVDEVFKIERPGE
GNYENINSNPYEAPDLSADGYALGSAMNNLAGCVVSPDVNTAQFTDCLLGGPLGGYFADSNAGFTETISNFNPKDDWSRVFLKSDKIIPTLYSNLTQVKLVSQNTNDPVPYAIAQVIKVAAMHRVTDAFGPIPYSQIGANGEIATPYDSQEVTYNTFFDELNAAIATLNENSNEQLVPTADYIYKGDVKKWIRFANSLKLRLAIRIAYANPVKAQQMAEEAVNPANGGVIESNADNATWNYFETSQNPIYVATRYNQVQTSDHGGVPCLTGGDTHAAADIICYMNGYKDNRREKFFTKSEWAGQDYVGMRRGIVIPELKTTGHKYSGVNIAPTSPLYWMNAAEVAFLRAEGQAVFNFSMGGTAESFYNQGIRLSFEQWGADGVEDYLKDDVNKPTAYTDPAGTNTYQNALSNITIKWNDSADKEEKQERIIVQKWIANWQLGNEAWADFRRTGYPKLIPVKENKSGGVVDSEKGARRMPYPLDEFVSNKANVEYAIANYLHGADNMATDVWWASKK
GPGSDGVWLEELEMEPSQYLPDLKEDELLKTPAVMVNLNRPMPEVLQELSKHPVRTRLSLTGTIIVARDSAHARMREMLEAGKPLPQYMKEHPVYYAGPAKQPDGLPSGSFGPTTAGRMDPFVDLFQSHGGSMVMLAKGNRSKQVTKACHKYGGFYLGSIGGPAAVLAQNAIKKVECLDMKDLGMEAVWRIEVENFPAFIVVDDKGNDFFEQL
GPGSMAEEIRTMIIGTSSAFRANVLREHFGDRFRNFVLLPPDIDEKAYRAADPFELTESIARAKMKAVLEKARQHSPPISGPAIALTFDQVVVKGDEVREKPLSTEQCRSFIASYSGGGVRTVATYALCVVGTENVLVAHNETETFFSKFGDDIVERTLERGACMNSAGGLVVEDEDMSRHVVRIVGTSYGVRGMEPAVVEKLLSQL
GPGSMAKSSRSKWKKMHRRQRAQAEATNTVKRICLLNKKLKLTVKGGISAVPPQEPEKRFHFLNPVLDSRVPNTRKNLNNNYRAELNHVEYDYTKPLKLAPPKTNMYGKTDVDAPHPMTVMYETIDADTPLAGHALTKADMERLARRQAQQESEASAAVADAEKDASKEDGDNADDGPEEYVFGMEDAAPRRARGQHKTSAKKKGSVAPKALKGAASASVGASSSVSETGSSSRMLAAAAAAMTNEEEEADHRTRNGGVTAVNKIASMQTMRKKNGTMVSAGGASKMKKVGQLGGSSGTRVVSSGGKVARKDVGNAKSGSKR
GPGSMAPLPRKALLAITSAHPPFWPDGKRTGLFFSEALHPFNELTAAGFEVDVASETGTFGWDEHSLTQEYLSKEDEKVLHSEHNHFMEKMNKQVFKAGDLAPHDYGLMFVCGGHGALYDFPHAKHLQNIAQDIYKRGGVIGAVCHGPAMLPGIHDENGDSVIKDKTVTGFTTKGEIMIKVIDKMREDHLHTIADMAQTANAEYVPPEDPWDDFCKVDGRIVTGANPQSATNTARDTIKVYEGIVNE
GPGSMEDRNSVASSVFFTGVSLVIEKEKLRQHFESVGHVVSFTIFGPAPGKDFRYGIVGYMDEKTAEEAIRRLDGTTFGERAMRVTAARSTTLHGPLRAGPGGGGSGPADHSTFRKRPREPYPSLNSSRPPYGPGMGRGGGMRAPIARVSFSAQQQQKQEQSQQPTTDKAGRETMQFPRFYTDPILGRDGSLVLDALRGMATEEAYSAVEQLRVLALERPNEAKRLLHNNPALKSAVIMTLQHAGRIPLGSLPRDAYQSRRAAEAEAELAQPLPPQQPTPSQQSALPTPQQTPPQPPAESLKPAKKEARSAAKSGEARGARKRDTATGSASASAAVPSESQTSLVRPSTPMTEAERDEVLELIQSMSEEDVERVLTMSARDFAQVPDPAQRKQLEVLQKRLLVMSRDL
